Measured values taken from article PMC5477506.
Each block holds one substance with its values, some of them ahead of it.

Legend:
[1] = biological target: CpTRIC, prokaryotic TRIC homologue from the bacterium Colwellia psychrerythraea (Colwellia psychrerythraea 34H); assay: SEC-MALS; analytical size-exclusion chromatography in detergent-containing mobile phases; multi-angle light scattering with refractive index detection used to analyse the oligomeric state
[2] = biological target: CpTRIC, prokaryotic TRIC homologue from the bacterium Colwellia psychrerythraea (Colwellia psychrerythraea 34H); assay: cross-linking; purified protein in DDM (around 1 mg/ml in 30 ul) with glutaraldehyde (0, 0.00005%, 0.0001%, 0.0005%, 0.001%) at room temperature for 8 h; quenched with 50 mM Tris-Cl pH 8.0; 12% SDS-PAGE
[3] = biological target: SaTRIC, prokaryotic TRIC homologue from the archaeon Sulfolobus acidocaldarius, wild type (Sulfolobus acidocaldarius); assay: SEC-MALS; analytical size-exclusion chromatography in detergent-containing mobile phases; multi-angle light scattering with refractive index detection used to analyse the oligomeric state
[4] = biological target: SaTRIC, prokaryotic TRIC homologue from the archaeon Sulfolobus acidocaldarius, wild type (Sulfolobus acidocaldarius); assay: cross-linking; purified protein in DDM (around 1 mg/ml in 30 ul) with glutaraldehyde (0, 0.00005%, 0.0001%, 0.0005%, 0.001%) at room temperature for 8 h; quenched with 50 mM Tris-Cl pH 8.0; 12% SDS-PAGE
[5] = biological target: SaTRIC, prokaryotic TRIC homologue from the archaeon Sulfolobus acidocaldarius, wild type (Sulfolobus acidocaldarius); assay: crystal structure; SaTRIC purified in DM, crystallised in lipid cubic phase (monoolein); lattices P6(3), P321 and R32, one molecule per asymmetric unit, trimer about the crystallographic three-fold axis
[6] = biological target: Se-Met CpTRIC (Colwellia psychrerythraea 34H); assay: crystal structure; Se-Met CpTRIC in octylmaltoside, crystallised from detergent micelles (38% PEG400, 0.1 M NaCl, 0.1 M CdCl2, 0.1 M Tris-HCl pH 8.5); space group R32, one protomer per asymmetric unit
[7] = biological target: Se-Met SaTRIC mutant (L148M) (Sulfolobus acidocaldarius); assay: crystal structure; SaTRIC purified in DM, crystallised in lipid cubic phase (monoolein); lattices P6(3), P321 and R32, one molecule per asymmetric unit, trimer about the crystallographic three-fold axis

stoichiometry N [1]: 3 | stoichiometry N [2]: 3
Substance: CpTRIC, prokaryotic TRIC homologue from the bacterium Colwellia psychrerythraea (natural protein)

stoichiometry N [3]: 3 | stoichiometry N [4]: 3 | stoichiometry N [5]: 3
Substance: SaTRIC, prokaryotic TRIC homologue from the archaeon Sulfolobus acidocaldarius, wild type (natural protein)

stoichiometry N [6]: 3
Substance: Se-Met CpTRIC (natural protein)

stoichiometry N [7]: 3
Substance: Se-Met SaTRIC mutant (L148M) (natural protein)
